Experimental data: article PMC3891622, “The Sphingolipid Receptor S1PR2 Is a Receptor for Nogo-A Repressing Synaptic Plasticity” (PLoS Biology, 2014)

T1: Fluorescently labeled recombinant Nogo-A-Δ20 (rat aa544-725) (rat), Q9JK11
T1 chain: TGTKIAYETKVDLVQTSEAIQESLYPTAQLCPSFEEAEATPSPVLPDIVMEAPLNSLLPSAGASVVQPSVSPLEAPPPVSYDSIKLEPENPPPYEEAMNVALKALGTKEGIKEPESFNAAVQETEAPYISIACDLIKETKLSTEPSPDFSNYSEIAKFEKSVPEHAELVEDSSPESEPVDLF

T2: Fluorescently labeled recombinant Nogo-A-Δ20 (rat aa544-725) (rat, UniProt Q9JK11-1 544-725, fluorescent label (Amine Reactive Protein labeling kit RED, L001, Nano Temper technologies))
T2 construct: Nogo-A (Rtn4), rat, residues 544-725 (Nogo-A-Δ20 domain); not shown: T7 or HA (His-/T7- or His-/HA-tagged)
T2 sequence (looked up): T1 chain

B1: S1PR2 extracellular loop 3 peptide (peptide)
peptide: SILLLDSTCPVRACPVLYK
modifications: here or on the partner: fluorescent label (Amine Reactive Protein labeling kit RED, L001, Nano Temper technologies)
B2: S1PR2 extracellular loop 2 peptide (peptide)
peptide: NCLNQLEACSTVLPLYAKHYVL
modifications: here or on the partner: fluorescent label (Amine Reactive Protein labeling kit RED, L001, Nano Temper technologies)
B3: S1PR2 extracellular loop 1 peptide (peptide)
peptide: LSGHVTLSLTPVQW
notes: Extracellular loop 1 of S1PR2; also called ECL1; source: synthetic peptide (JPT Peptide Technologies)
B4: S1PR2 N-terminus peptide (peptide)
peptide: MGGLYSEYLNPEKVQEHYNYTKETLDMQETPSRK
notes: Extracellular N-terminus of S1PR2; source: synthetic peptide (JPT Peptide Technologies)

Assays:
[1] = molecular target: T1, Fluorescently labeled recombinant …; experiment: MST; Monolith NT.115; fluorescently labeled Nogo-A-Δ20 constant (~40 nM), peptides serially diluted; PBS with 0.025% Tween-20, pH 7.4; LED 60%, IR laser 20%; non-linear regression with Hill coefficient 1.0; details: remark: other sources report otherwise
[2] = molecular target: T2, Fluorescently labeled recombinant …; experiment: as above; details: both partners purified

Row | Binder | Kd [1] | Kd [2]
1 | B1 | 350 nM | 
2 | B2 | 280 nM | 
3 | B3 |  | ~1700 nM
4 | B4 |  | ~11000 nM
